Laboratory results taken from US12447133B2, “Composition and device for preventing hypoglycemia and use thereof” (THE GOVERNING COUNCIL OF THE UNIVERSITY OF TORONTO, priority 2018, dated 2025).

Assays:
[1] = Stability of released glucagon (far-UV CD and RP-HPLC); format: physicochemical
Method: The effect of glucose concentration on microgel size was characterized using dynamic light scattering (DLS, Malvern Zetasizer Nano-ZS). Adjustment of pH was made using NaOH or HCl. Dimensions and surface morphology of freeze-dried microgels were examined by scanning electron microscopy (SEM/EDX) at an acceleration voltage of 20 kV. Transmission electron microscopy (TEM) images were performed on a Hitachi H-7500 transmission electron microscope operated at 80 kV. In addition, Rhodamine-B (Rh-B) labelling was applied to track the distribution of microgels within the microneedle array. The microgels were first immersed in 10 μg/mL of Rh-B for 12 hours at room temperature and then washed with DI-water three times. […] Glucagon and its degradation products were assayed using a reversed-phase high-performance liquid chromatography (RP-HPLC) system (Waters, MA, USA) equipped with a binary pump, autosampler, and UV detector (2899 Photodiode Detector Array, Waters, MA, USA). ^1H-NMR, and ^11B-NMR spectra were recorded in dimethyl sulfoxide (DMSO) and deuterium oxide (D2O) with a Bruker AM 400 spectrometer (400 MHz). […] Glucagon released from microgels or MNs were collected and measured using a CD spectropolarimeter (Jasco J-810, MD, USA) equipped with a Peltier temperature module set to 25° C. […]

[2] = tested on: STZ-induced type 1 diabetic male Sprague Dawley rats; assay: Antidiabetic effect of S.C. microgel injection in type 1 diabetic rats; format: in vivo, rat
Method: Male Sprague Dawley rats (Charles River) were treated with 65 mg/kg streptozotocin (STZ) to induce type 1 diabetes. The rats receiving STZ were carefully monitored for 1 week during which time the blood sugar was measured in 2 day intervals using a glucose meter (OneTouch® Ultra®, LifeScan, Inc., USA). Diabetic rats with blood sugar stabilized above 17 mmol/L were selected for the study. All rats were fasted for 4 hours prior to the experiment to eliminate the possible confounding effect of food (BERNICE […], 1965). The blood glucose levels of the diabetic rats were monitored every 15 minutes throughout the experiment. […] The blood glucose levels were measured every 15 min after injection and stopped whenever they were above/bellow euglycemia threshold.

| Substance | secondary structure of released glucagon (far-UV CD, peaks at 208 and 222 nm) ([1]; released at 50 mg/dL glucose, compared to fresh native glucagon) | degradation products of released glucagon (RP-HPLC) ([1]; released from composite patch, compared to fresh glucagon) | time after which blood glucose increased back to hyperglycemia ([2]; 0.5 IU/kg insulin S.C.) [h] | occurrence of hypoglycemia ([2]; 1 IU/kg insulin S.C.) | time to reach euglycemia post-injection ([2]; 1 IU/kg insulin S.C.) [min] |
| --- | --- | --- | --- | --- | --- |
| glucagon | preserved | no detectable degradants | – | – | – |
| insulin | – | – | 3 | fell even further below the hypoglycemic threshold | ≤ 45 |
